{
  "source": "the RNAGym collection of RNA variant scans (doi:10.7554/elife.90254)",
  "parents": {"B1": {"name": "OR4K15 (parent)", "chain": "GUUAACGGUCAUAGGCCAUGGAAACUAGGAGCACCAUUUCGCUGCCAGUGAAGAAAUGAACAAAGAAAAUCUGGGCCAGGCAGGCAUCAAAAGAAAUAGUCUUGCGCUCAACCAGAAAGUCUGUAAUCAUUUUAAGGGUA"}},
  "data": [
    {"variants_of": "B1", "experiment": "self-cleavage, relative activity (ratio to wild type); higher = more cleavage; in vitro, sequencing; the parent is a self-cleaving ribozyme", "values": [
      {"variant": "A13G A117G", "self-cleavage": 1.11},
      {"variant": "U12C A92G", "self-cleavage": 0.58},
      {"variant": "U12C U37C", "self-cleavage": 1.04},
      {"variant": "A13G A118C", "self-cleavage": 0.41},
      {"variant": "U12C A59U", "self-cleavage": 0.65},
      {"variant": "U12C A30G", "self-cleavage": 1.28},
      {"variant": "U12C A30U", "self-cleavage": 1.21},
      {"variant": "A13G A55U", "self-cleavage": 1.2},
      {"variant": "A13G A55G", "self-cleavage": 0.97},
      {"variant": "U12C U57G", "self-cleavage": 1.33},
      {"variant": "A13U C34U", "self-cleavage": 1.2},
      {"variant": "A13G C107A", "self-cleavage": 0.19},
      {"variant": "A13U C35A", "self-cleavage": 1.88},
      {"variant": "U12C U38C", "self-cleavage": 1.73},
      {"variant": "U12C U38G", "self-cleavage": 1.22},
      {"variant": "U12C A126C", "self-cleavage": 0.42},
      {"variant": "U12C A126U", "self-cleavage": 0.52},
      {"variant": "U12C A94U", "self-cleavage": 1.8},
      {"variant": "A13G A66G", "self-cleavage": 0.55},
      {"variant": "A13G A126U", "self-cleavage": 0.88},
      {"variant": "U12C U127C", "self-cleavage": 0.62},
      {"variant": "U12C A66G", "self-cleavage": 0.97},
      {"variant": "A13U A54G", "self-cleavage": 0.73},
      {"variant": "A13U A129U", "self-cleavage": 0.73},
      {"variant": "A13G G65A", "self-cleavage": 1.2},
      {"variant": "U12G U37C", "self-cleavage": 1.48},
      {"variant": "A13G A91C", "self-cleavage": 1.81},
      {"variant": "A13G A91U", "self-cleavage": 0.92},
      {"variant": "A13G A91G", "self-cleavage": 0.9},
      {"variant": "A13G A140G", "self-cleavage": 0.62},
      {"variant": "A13G A140C", "self-cleavage": 1.31},
      {"variant": "A13U A47U", "self-cleavage": 1.24},
      {"variant": "A13C U120C", "self-cleavage": 1.78},
      {"variant": "A13G A30G", "self-cleavage": 1},
      {"variant": "A13G A30U", "self-cleavage": 1.14},
      {"variant": "A13G C85U", "self-cleavage": 0.89},
      {"variant": "A13U A117G", "self-cleavage": 2.05},
      {"variant": "A13G A36U", "self-cleavage": 0.67},
      {"variant": "U12C A86G", "self-cleavage": 0.8},
      {"variant": "A13G G93U", "self-cleavage": 0.86},
      {"variant": "A13G G104A", "self-cleavage": 0.06},
      {"variant": "U12G A24G", "self-cleavage": 1.1},
      {"variant": "U12C U122G", "self-cleavage": 2.09},
      {"variant": "A13G A47U", "self-cleavage": 1.26},
      {"variant": "U12C A47U", "self-cleavage": 0.93},
      {"variant": "U12C A110U", "self-cleavage": 1.26},
      {"variant": "A13U", "self-cleavage": 1.11},
      {"variant": "A13C", "self-cleavage": 1.33},
      {"variant": "A13G", "self-cleavage": 0.79},
      {"variant": "A13G U70G", "self-cleavage": 1.1},
      {"variant": "U12C U131C", "self-cleavage": 1.28},
      {"variant": "U12C A98G", "self-cleavage": 0.74},
      {"variant": "U12C U87C", "self-cleavage": 0.75},
      {"variant": "A13G A89U", "self-cleavage": 1.09},
      {"variant": "U12G C105U", "self-cleavage": 0.22},
      {"variant": "A13G U38C", "self-cleavage": 1.14},
      {"variant": "A13C U122C", "self-cleavage": 1.03},
      {"variant": "A13C U122G", "self-cleavage": 2.12},
      {"variant": "A13G A67C", "self-cleavage": 0.22},
      {"variant": "A13G A67G", "self-cleavage": 1},
      {"variant": "A13U A18C", "self-cleavage": 1.62},
      {"variant": "U12C A78G", "self-cleavage": 0.31},
      {"variant": "U12C A95G", "self-cleavage": 1.57},
      {"variant": "A13U A33C", "self-cleavage": 2.21},
      {"variant": "U12C U124C", "self-cleavage": 0.67},
      {"variant": "U12G A86G", "self-cleavage": 0.92},
      {"variant": "A13G A129G", "self-cleavage": 0.85},
      {"variant": "A13U A30G", "self-cleavage": 1.26},
      {"variant": "U12G G138A", "self-cleavage": 1.44},
      {"variant": "A13G A135C", "self-cleavage": 0.49},
      {"variant": "A13G A64C", "self-cleavage": 1.08},
      {"variant": "A13G A64G", "self-cleavage": 0.88},
      {"variant": "A13G U97A", "self-cleavage": 1.2},
      {"variant": "U12C A111G", "self-cleavage": 0.03},
      {"variant": "U12C A56G", "self-cleavage": 0.93},
      {"variant": "U12C A118G", "self-cleavage": 0.61},
      {"variant": "A13G A95U", "self-cleavage": 2.06},
      {"variant": "A13G A95G", "self-cleavage": 1},
      {"variant": "A13G U87A", "self-cleavage": 0.92},
      {"variant": "U12C G28U", "self-cleavage": 0.66},
      {"variant": "A13U A59G", "self-cleavage": 0.41},
      {"variant": "A13G A90G", "self-cleavage": 1.15},
      {"variant": "A13G U37A", "self-cleavage": 0.82},
      {"variant": "A13G C88U", "self-cleavage": 1.29},
      {"variant": "U12C U120C", "self-cleavage": 0.75},
      {"variant": "A13C A60G", "self-cleavage": 1.39},
      {"variant": "A13U A24G", "self-cleavage": 1.06},
      {"variant": "U12C U43A", "self-cleavage": 0.93},
      {"variant": "U12C U43C", "self-cleavage": 1.34},
      {"variant": "A13C U139C", "self-cleavage": 1.48},
      {"variant": "A13C A66G", "self-cleavage": 0.52},
      {"variant": "A13U A67G", "self-cleavage": 1.14},
      {"variant": "A13G C61U", "self-cleavage": 0.68},
      {"variant": "U12C A82G", "self-cleavage": 0.76},
      {"variant": "U12C G31U", "self-cleavage": 1.48},
      {"variant": "A13G A56G", "self-cleavage": 1.04},
      {"variant": "A13G A56U", "self-cleavage": 1.33},
      {"variant": "A13G U26C", "self-cleavage": 0.93},
      {"variant": "U12C G41A", "self-cleavage": 1.35},
      {"variant": "U12C A51G", "self-cleavage": 0.87},
      {"variant": "A13G G75C", "self-cleavage": 0.43},
      {"variant": "U12C C85A", "self-cleavage": 0.75},
      {"variant": "A13G U103C", "self-cleavage": 0.75},
      {"variant": "A13G A22G", "self-cleavage": 1.11},
      {"variant": "A13G A116G", "self-cleavage": 0.55},
      {"variant": "A13C U132C", "self-cleavage": 1.06},
      {"variant": "U12C U39C", "self-cleavage": 1.21},
      {"variant": "A13C A135G", "self-cleavage": 1.04},
      {"variant": "A13C A30G", "self-cleavage": 1.49},
      {"variant": "U12G A13G", "self-cleavage": 1.09},
      {"variant": "A13G A23G", "self-cleavage": 1.3},
      {"variant": "U12C U19A", "self-cleavage": 1.05},
      {"variant": "A13G U120C", "self-cleavage": 0.6},
      {"variant": "A13G U120A", "self-cleavage": 1.9},
      {"variant": "U12C A68G", "self-cleavage": 1.21},
      {"variant": "U12C U97A", "self-cleavage": 1.6},
      {"variant": "U12C U130A", "self-cleavage": 1.45},
      {"variant": "A13G U72C", "self-cleavage": 0.54},
      {"variant": "A13G A96G", "self-cleavage": 0.9},
      {"variant": "A13U A62G", "self-cleavage": 0.9},
      {"variant": "A13G A78G", "self-cleavage": 0.52},
      {"variant": "A13G U43C", "self-cleavage": 0.98},
      {"variant": "A13G C109A", "self-cleavage": 0.6},
      {"variant": "A13U A60U", "self-cleavage": 2.26},
      {"variant": "U12C A134G", "self-cleavage": 1.7},
      {"variant": "A13G G123C", "self-cleavage": 1.35},
      {"variant": "A13G G123U", "self-cleavage": 1.33},
      {"variant": "A13U A22U", "self-cleavage": 1.45},
      {"variant": "A13U A22G", "self-cleavage": 1.38},
      {"variant": "U12C A67G", "self-cleavage": 1.33},
      {"variant": "A13G A27G", "self-cleavage": 1.15},
      {"variant": "A13G A52G", "self-cleavage": 1.22},
      {"variant": "A13G A52U", "self-cleavage": 0.84},
      {"variant": "U12C U100G", "self-cleavage": 1.34},
      {"variant": "U12C U100C", "self-cleavage": 1.4},
      {"variant": "A13U A110G", "self-cleavage": 0.08},
      {"variant": "A13U A110U", "self-cleavage": 1.26},
      {"variant": "A13U A23G", "self-cleavage": 1.43},
      {"variant": "A13G G20A", "self-cleavage": 0.94},
      {"variant": "U12C A89C", "self-cleavage": 1.09},
      {"variant": "U12C A90G", "self-cleavage": 0.97},
      {"variant": "U12C U108C", "self-cleavage": 0.03},
      {"variant": "U12G A27C", "self-cleavage": 1},
      {"variant": "A13C A51U", "self-cleavage": 1.65},
      {"variant": "A13G A69G", "self-cleavage": 0.92},
      {"variant": "U12C A135C", "self-cleavage": 0.84},
      {"variant": "U12C A135G", "self-cleavage": 1.25},
      {"variant": "A13U C105U", "self-cleavage": 0.23},
      {"variant": "A13U A111G", "self-cleavage": 0.03},
      {"variant": "A13G U130C", "self-cleavage": 0.83},
      {"variant": "A13G U130A", "self-cleavage": 0.34},
      {"variant": "A13G A111G", "self-cleavage": 0.15},
      {"variant": "A13U A66G", "self-cleavage": 1.49},
      {"variant": "A13U A82U", "self-cleavage": 0.24},
      {"variant": "U12C A96U", "self-cleavage": 1.32},
      {"variant": "U12C A129G", "self-cleavage": 0.89},
      {"variant": "A13G A86G", "self-cleavage": 0.89},
      {"variant": "A13G A86C", "self-cleavage": 0.5},
      {"variant": "A13G A51U", "self-cleavage": 0.66},
      {"variant": "A13G A18U", "self-cleavage": 0.89},
      {"variant": "A13G A18G", "self-cleavage": 1.3},
      {"variant": "U12C U102A", "self-cleavage": 1.94},
      {"variant": "A13G U127A", "self-cleavage": 1.91},
      {"variant": "A13U A51G", "self-cleavage": 1.53},
      {"variant": "U12C A63C", "self-cleavage": 1.12},
      {"variant": "U12C A63G", "self-cleavage": 1.43},
      {"variant": "A13U A90C", "self-cleavage": 1.69}
    ]}
  ]
}
